Columns and labels:
[1] = target: column ligand of the FLAG-Tag system (Prot)
[2] = target: column ligand of the Strep-Tag system (Prot)

## FLAG-Tag (peptide)
[1]
  Capacity: 0.6 mg/mL
  Kd: 1 nM

## Strep-Tag (peptide)
[2]
  Capacity: 6 mg/mL
  Kd: 1000 nM

From patent publication US20240417426A1
